Test [1] addresses T1, human TROP2-his protein (human, UniProt P09758 27-274).
T1 construct: Biotin-labelled in the ELISAs, unlabelled analyte in Biacore; also called biotin-labeled human TROP2-his protein; biotin human Trop2-his
T1 sequence: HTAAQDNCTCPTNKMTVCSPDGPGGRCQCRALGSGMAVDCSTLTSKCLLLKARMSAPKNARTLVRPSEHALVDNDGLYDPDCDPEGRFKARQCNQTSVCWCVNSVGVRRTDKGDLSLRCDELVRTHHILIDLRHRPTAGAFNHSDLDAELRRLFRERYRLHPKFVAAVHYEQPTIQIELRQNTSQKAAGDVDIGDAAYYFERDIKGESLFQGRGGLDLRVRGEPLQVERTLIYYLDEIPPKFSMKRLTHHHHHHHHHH
Nature of the test: competitive ELISA: mouse A1H3C5H8E12 coated at 2 ug/mL, antibody premixed with biotin human TROP2-his; blocked: binding of TROP2-his to coated A1H3C5H8E12 (self-competition); no lower plateau reached at 80 nM. As for the experimental part: (§1) The mouse anti-TROP2 antibodies were tested for epitope binding in a competitive ELISA assay. […] ELISA plates were washed once with wash buffer (PBS+0.05% v/v Tween-20, PBST) and then blocked with 200 μl blocking buffer (5% w/v non-fatty milk in PBST) for 2 hours at 37° C. While blocking, the anti-TROP2 antibodies or controls were diluted with biotin labeled human TROP2-his protein (SEQ ID NO: 67, 34 ng/mL in 2.5% wA non-fatty milk in PBST), starting at 80 nM with a 5-fold serial dilution, and incubated at room temperature for 40 minutes. After plate washing for 4 times, the antibody/TROP2-his protein mixtures were added to the antibody coated plates, 100 μl per well. After incubation at 37° C. for 40 minutes, plates were washed 4 times again using wash buffer. Then the plates were added and incubated with 100 μl Peroxidase Streptavidin (1:10000 dilution in PBST buffer. Jackson Immunoresearch, Cat #016-030-084) for 40 minutes at 37° C. Plates were washed again using wash buffer. Finally, TMB was added and the reaction was stopped using 1M H₂SO₄. The absorbance of each well was read on a microplate reader using dual wavelength mode with 450 nm for TMB and 630 nm as the reference wavelength, and the OD (450-630) values were plotted against antibody concentration. Data was analyzed using Graphpad Prism software and IC₅₀ values were reported.
For orientation: ELISA stands for enzyme-linked immunosorbent assay.

In test [2] the target is T1, human TROP2-his protein. Nature of the test: competitive ELISA: mouse A1E4F7D4 coated at 2 ug/mL, antibody premixed with biotin human TROP2-his; blocked: binding of TROP2-his to coated A1E4F7D4 (self-competition). On the procedure:
as §1

The target of test [3] is T1, human TROP2-his protein. Nature of the test: SPR Biacore, antibody captured on anti-human IgG CM5 chip, TROP2-his analyte. As for the experimental part: (§2) Un-reacted moieties on the chip (biosensor) surface were blocked with ethanolamine. […] The antigen-antibody association kinetics was followed for 2 minutes and the dissociation kinetics was followed for 10 minutes. The association and dissociation curves were fit to a 1:1 Langmuir binding model using BIAcore evaluation software.

For test [4], the target named is T1, human TROP2-his protein. Nature of the test: competitive ELISA: BM1 coated at 1 ug/mL, antibody premixed with biotin human TROP2-his; blocked: binding of TROP2-his to coated BM1 (self-competition). As for the experimental part: as §1
Test [5] has as its target T2, cynomolgus TROP2-his protein (cynomolgus monkey, UniProt P09758 27-272 (human entry), limits assumed).
T2 construct: no cleavage site is stated; also called Cynomolgus monkey TROP2-his protein; monkey TROP2
T2 chain: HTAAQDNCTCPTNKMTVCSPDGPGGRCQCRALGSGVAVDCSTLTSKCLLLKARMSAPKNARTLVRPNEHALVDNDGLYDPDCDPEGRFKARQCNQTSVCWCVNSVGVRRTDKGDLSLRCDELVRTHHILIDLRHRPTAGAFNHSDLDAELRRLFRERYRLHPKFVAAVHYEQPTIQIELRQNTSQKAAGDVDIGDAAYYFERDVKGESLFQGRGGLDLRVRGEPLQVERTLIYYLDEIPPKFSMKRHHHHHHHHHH
Nature of the test: indirect ELISA, cynomolgus TROP2-his coated, OD(450-630). As for the experimental part: The anti-TROP2 antibodies of the disclosure were tested for their cross-reaction with cynomolgus TROP2 proteins. Briefly, 96-well micro plates were coated with 100 μl 2 μg/ml cynomolgus TROP2-his proteins (prepared in-house with SEQ ID NO: 70) in carbonate/bicarbonate buffer (pH 9.6) overnight at 4° C. ELISA plates were washed once with wash buffer (PBS+0.05% v/v Tween-20, PBST) and then blocked with 200 μl/well blocking buffer (5% w/v non-fatty milk in PBST) for 2 hours at 37° C. […] After a final wash, plates were incubated with 100 μl/well TMB (Innoreagents) at room temperature. The reaction was stopped 3-10 minutes later at room temperature with 50 μl/well 1M H₂SO₄, and the absorbance of each well was read on a microplate reader using dual wavelength mode with 450 nm for TMB and 630 nm as the reference wavelength. The OD (450-630) values were plotted against antibody concentration. Data was analyzed using Graphpad Prism software and EC₅₀ values were reported.

In test [6] the target is T2, cynomolgus TROP2-his protein. Nature of the test: SPR Biacore T200, benchmark captured on Protein G chip, TROP2-his analyte. On the procedure:
as §2
(In general: SPR reads the build-up and loss of mass on a sensor chip optically.)

Test [7] deals with T1, human TROP2-his protein. The description is as above. As for the experimental part: as §2

By IC50 is commonly meant the concentration needed to halve the response being measured. As a reminder, the Kd is a measure of binding affinity in units of concentration. Low readings indicate tighter binding, high ones weaker binding. Usually EC50 stands for the concentration giving half of the maximal effect. A low value points to a more potent agent.

B1: mouse antibody A1H3C5H8E12 (antibody, V domains shown)
VH: QVQLQQSGAELVRPGTSVKMSCKAAGYTFTNYWIDWVKQRPGHGLEWIGNIFPGGFYTNYNEKFKGKATLTADTSSSTAYMQLSSLTSEDSAIYYCARGGVFDYWGQGTTLTVSS
VL: DILLTQSPAILSVSPGERVSFSCRASQSIGTSIHWYQQRTNGSPRLLIKYASESISGIPSRFSGSGSGTDFTLSINSVESEDIADYYCQQSNSWPYTFGGGTKLEIK
notes: Mouse monoclonal IgG purified from hybridoma supernatant
In the test with human TROP2-his protein [1], B1 registered an IC50 of 7 nM.

B2: mouse antibody A1E4F7D4 (antibody, V domains shown)
VH: QVQLQQSGAELAKPGTSVKMSCEASGYSFTTHWIHWMKQRPGQGLEWIGTIFPSNAYAVYNQKFRDRAIMTADRSSTTAYIQLTGLTSEDSAVYYCARASYFDYWGQGTTLTVSS
VL: DILLTQSPATLSVSPGERVTFSCRASQNIGTSIHWFQQRTTGSPRLLIKYASESISGIPSRFSGSGSGTDFTLHINSVESEDIAHYYCQHSHSWPFTFGSGTKLEIQ
notes: Mouse monoclonal IgG purified from hybridoma supernatant; also called Mouse A1E4F7D4
B2 registered an IC50 in the test with human TROP2-his protein [2] of 0.0675 nM.

B3: benchmark (in house prepared sacituzumab) (antibody, human IgG1, kappa, V domains shown)
VH: SVQLQQSGSELKKPGASVKVSCKASGYTFTNYGMNWVKQAPGQGLKWMGWINTYTGEPTYTDDFKGRFAFSLDTSVSTAYLQISSLKADDTAVYFCARGGFGSSYWYFDVWGQGSLVTVSS
VL: DIQLTQSPSSLSASVGDRVSITCKASQDVSIAVAWYQQKPGKAPKLLIYSASYRYTGVPDRFSGSGSGTDFTLTISSLQPEDFAVYYCQQHYITPLTFGAGTKVEIKR
notes: also called BM; BM1
With B3, the values for the Kd (in the test with human TROP2-his protein [3]; in test [6]; in the test with human TROP2-his protein [7]) were 0.385 nM, 0.557 nM and 0.868 nM, respectively. The molecule also registered an IC50 in the test with human TROP2-his protein [4] of 0.632 nM. Also, the response in test [5] was half-maximal at 0.138 nM (EC50).
